Test results reported in patent publication US20210196794A1 (SUNSHINE LAKE PHARMA, published 2021).
Positions count from the first letter of the chain named. Blank lines part the entries; values can stand above or below the binder they belong to.

Experiments:
[1] = molecular target: βKlotho protein (AVIVA SYSTEMS BIOLOGY); assay: ELISA on coated βKlotho, detection with anti-human IgG4 Fc-HRP, OD450
[2] = molecular target: βKlotho protein (AVIVA SYSTEMS BIOLOGY); assay: BLI (Octet RED 96), biotinylated βKlotho on streptavidin probe, fusion protein at 40 nM
[3] = molecular target: βKlotho protein (AVIVA SYSTEMS BIOLOGY); assay: BLI (Octet RED 96), biotinylated βKlotho on streptavidin probe

Chain of βKlotho protein (AVIVA SYSTEMS BIOLOGY) (chain, as listed by the source): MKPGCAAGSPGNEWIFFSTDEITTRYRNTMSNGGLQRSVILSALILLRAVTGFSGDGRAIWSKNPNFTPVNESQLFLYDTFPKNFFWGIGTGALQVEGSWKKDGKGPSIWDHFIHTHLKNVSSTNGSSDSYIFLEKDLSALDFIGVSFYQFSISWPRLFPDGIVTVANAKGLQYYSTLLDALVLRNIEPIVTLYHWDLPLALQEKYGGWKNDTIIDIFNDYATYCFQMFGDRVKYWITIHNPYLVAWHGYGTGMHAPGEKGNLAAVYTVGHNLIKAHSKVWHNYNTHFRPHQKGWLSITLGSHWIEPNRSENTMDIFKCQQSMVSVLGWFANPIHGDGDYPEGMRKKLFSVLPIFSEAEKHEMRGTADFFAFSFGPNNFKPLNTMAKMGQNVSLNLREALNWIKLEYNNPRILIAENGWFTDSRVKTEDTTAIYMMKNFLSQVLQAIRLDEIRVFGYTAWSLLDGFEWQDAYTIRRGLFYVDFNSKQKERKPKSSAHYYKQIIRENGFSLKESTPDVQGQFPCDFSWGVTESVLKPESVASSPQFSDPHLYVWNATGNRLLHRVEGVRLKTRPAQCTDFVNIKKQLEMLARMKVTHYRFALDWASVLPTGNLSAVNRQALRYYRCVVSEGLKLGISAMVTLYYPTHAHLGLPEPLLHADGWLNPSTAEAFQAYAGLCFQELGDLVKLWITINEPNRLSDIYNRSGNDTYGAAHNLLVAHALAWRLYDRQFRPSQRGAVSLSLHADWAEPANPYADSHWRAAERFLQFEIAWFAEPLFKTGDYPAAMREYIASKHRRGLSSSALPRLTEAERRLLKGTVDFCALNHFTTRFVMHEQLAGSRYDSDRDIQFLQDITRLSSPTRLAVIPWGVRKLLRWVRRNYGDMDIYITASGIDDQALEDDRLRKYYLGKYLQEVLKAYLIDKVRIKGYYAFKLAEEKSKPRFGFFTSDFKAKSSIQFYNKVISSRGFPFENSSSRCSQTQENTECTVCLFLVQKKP

EC50 (read off the curve) [1]: ~0.2 µg/mL
B1: fusion protein S5 (human IgG4 Fc - linker - FGF21 variant 98R, 167H, 171A, 175H) (Fc fusion)
chain: ESKYGPPCPPCPAPEAAGGPSVFLFPPKPKDTLMISRTPEVTCVVVDVSQEDPEVQFNWYVDGVEVHNAKTKPREEQFNSTYRVVSVLTVLHQDWLNGKEYKCKVSNKGLPSSIEKTISKAKGQPREPQVYTLPPSQEEMTKNQVSLTCLVKGFYPSDIAVEWESNGQPENNYKTTPPVLDSDGSFFLYSKLTVDKSRWQEGNVFSCSVMHEALHNHYTQKSLSLSLGGGGGSGGGGSGGGGSHPIPDSSPLLQFGGQVRQRYLYTDDAQQTEAHLEIREDGTVGGAADQSPESLLQLKALKPGVIQILGVKTSRFLCQRPDGALYGSLHFDPEACSFRERLLEDGYNVYQSEAHGLPLHLPGNKSPHRDPAPRGPARFLPLPGLPPALPEPPGILAPQPPDVGSSDPLHMVGASQGHSPSYAS

EC50 (read off the curve) [1]: ~0.08 µg/mL
B2: fusion protein S4 (human IgG4 Fc - linker - FGF21 variant 98R, 167H, 171A, 175P) (Fc fusion)
chain: B1 chain with H418P

EC50 (read off the curve) [1]: ~0.02 µg/mL
Kd [2]: 0.63 nM
Response values [2]: 0.17
B3: fusion protein S1 (human IgG4 Fc - linker - FGF21 variant 98R, 167H, 171A) (Fc fusion)
chain: B1 chain with H418R
notes: Purified from HEK293F cells by Protein A

EC50 (read off the curve) [1]: ~0.02 µg/mL
Kd [2]: 0.429 nM
Response values [2]: 0.19
binding ability relative to S7 [3]: 2 fold
B4: fusion protein S2 (human IgG4 Fc - linker - FGF21 variant 98R, 167H, 171A, 175L) (Fc fusion)
chain: B1 chain with H418L

Kd [2]: 0.873 nM
Response values [2]: 0.143
B5: fusion protein S7 (human IgG4 Fc - linker - FGF21 variant 98R, 171A) (Fc fusion)
chain: B1 chain with H410S, H418R
